According to EP4806514A2 (Lepu Biopharma Co., Ltd., dated 2025):
Substitutions are numbered along the chain they refer to.

B1: 29H8D3-z12p1 (antibody, V domains shown)
VH: QVQLVQSGAEVKKPGASVKVSCKASGYTFTDHTIHWMRQRPGQGLEWIGYIYPREGYTKYNEKFKDRATLTADTSTSTAYMELRSLRSDDTAVYYCARFYYGYWYFDVWGQGTTVTVSS
VL: DIVMTQSPLSLPVTPGEPASISCRSSKSLLRSNGNTYLYWFLQKPGQSPQVLIYRMSNLASGVPDRFSGSGSGTDFTLKISRVEAEDVGVYYCMQHLEYPFTFGQGTKLEIK
notes: PTM-removed variant of 29H8D3-z12
B2: 29H8D3-z23 (antibody, V domains shown)
VH: B1 VH with R40A, E55D, L70M, A72T
VL: B1 VL with D75A, Q105A
notes: Humanized, human IgG1 constant region
B3: 29H8D3-z12p14 (antibody, V domains shown)
VH: B1 VH with E55D
VL: B1 VL with M94T
notes: PTM-removed variant of 29H8D3-z12; VH is that of 29H8D3-z12
B4: 29H8D3-z18 (antibody, V domains shown)
VH: B1 VH with M37V, R40A, E55D, L70M, A72T
VL: B1 VL with D75A
notes: as for B2
B5: 29H8D3-z12p10 (antibody, V domains shown)
VH: B1 VH with E55D
VL: B1 VL with M94K
notes: as for B3
B6: 29H8D3-z22 (antibody, V domains shown)
VH: B1 VH with M37V, R40A, E55D, L70M, A72T
VL: B1 VL with D75A, Q105A
notes: as for B2
B7: 29H8D3-z21 (antibody, V domains shown)
VH: B1 VH with M37V, R40A, I48M, E55D, A68V, L70M, A72T
VL: B1 VL with D75A, Q105A
notes: as for B2
B8: 29H8D3-z19 (antibody, V domains shown)
VH: B1 VH with R40A, E55D, L70M, A72T
VL: B1 VL with D75A
notes: as for B2
B9: 29H8D3-z20 (antibody, V domains shown)
VH: B1 VH with E55D
VL: B1 VL with D75A
notes: as for B2
B10: 29H8D3-z12p13 (antibody, V domains shown)
VH: B1 VH with E55D
VL: B1 VL with M94S
notes: as for B3
B11: 29H8D3-z17 (antibody, V domains shown)
VH: B1 VH with M37V, R40A, I48M, E55D, A68V, L70M, A72T
VL: B1 VL with D75A
notes: as for B2
B12: 29H8D3-z12p9 (antibody, V domains shown)
VH: B1 VH with E55D
VL: B1 VL with M94H
notes: as for B1
B13: 61C7F12-z2 (antibody, V domains shown)
VH: EVQLVESGGGLVKPGGSLRLSCAASGFTFSSYAMSWVRQAPGKGLEWVSTINIGGSYTYYPDSVKGRFTISRDNAKNSLYLQMNSLRAEDTAVYYCARQEGRYWYFDVWGQGTTVTVSS
VL: DIQLTQSPSFLSASVGDRVTITCTASSSVSSSYLHWYQQKPGKAPKLWIYSTSNLASGVPSRFSGSGSGTEYTLTISSLQPEDFATYYCHQFHRSPYTFGGGTKVEIK
notes: Humanized, human IgG1 constant region; also called 61C7F12 HU-VH1-0 / HU-VL1-1
B14: 61C7F12-z9 (antibody, V domains shown)
VH: B13 VH
VL: EIVLTQSPGTLSLSPGERATLSCTASSSVSSSYLHWYQQKPGQAPRLLIYSTSNLASGIPDRFSGSGSGTDFTLTISRLEPEDFAVYYCHQFHRSPYTFGGGTKVEIK
notes: Humanized, human IgG1 constant region; also called 61C7F12 HU-VH1-0 / HU-VL2-0
B15: 61C7F12-z4 (antibody, V domains shown)
VH: B13 VH
VL: B13 VL with D1Q, Q3V, A44S, E71S, T73S
notes: Humanized, human IgG1 constant region; also called 61C7F12 HU-VH1-0 / HU-VL1-3
B16: 61C7F12-z7 (antibody, V domains shown)
VH: B13 VH with S49A
VL: B13 VL with Q3V, A44S, T73S
notes: Humanized, human IgG1 constant region; also called 61C7F12 HU-VH1-1 / HU-VL1-2
B17: 61C7F12-z8 (antibody, V domains shown)
VH: B13 VH with S49A
VL: B13 VL with D1Q, Q3V, A44S, E71S, T73S
notes: Humanized, human IgG1 constant region; also called 61C7F12 HU-VH1-1 / HU-VL1-3
B18: 61C7F12-z1 (antibody, V domains shown)
VH: B13 VH
VL: B13 VL with W48L, Y72F
notes: Humanized, human IgG1 constant region; also called 61C7F12 HU-VH1-0 / HU-VL1-0
B19: 61C7F12-z3 (antibody, V domains shown)
VH: B13 VH
VL: B13 VL with Q3V, A44S, T73S
notes: Humanized, human IgG1 constant region; also called 61C7F12 HU-VH1-0 / HU-VL1-2
B20: 61C7F12-z5 (antibody, V domains shown)
VH: B13 VH with S49A
VL: B13 VL with W48L, Y72F
notes: Humanized, human IgG1 constant region; also called 61C7F12 HU-VH1-1 / HU-VL1-0
B21: 61C7F12-z10 (antibody, V domains shown)
VH: B13 VH with S49A
VL: B14 VL
notes: Humanized, human IgG1 constant region; also called 61C7F12 HU-VH1-1 / HU-VL2-0
B22: 61C7F12-z6 (antibody, V domains shown)
VH: B13 VH with S49A
VL: B13 VL
notes: Humanized, human IgG1 constant region; also called 61C7F12 HU-VH1-1 / HU-VL1-1
B23: 29D2D7-z19 (antibody, V domains shown)
VH: QVQLVQSGAEVKKPGASVKVSCKASGYTFTDYDMHWVKQAPGQGLEWIGGFDPESAGTVYNLRFKDKATLTADKSTSTAYMELRSLRSEDTAVYYCARKGYYSVSSPFTYWGQGTLVTVSS
VL: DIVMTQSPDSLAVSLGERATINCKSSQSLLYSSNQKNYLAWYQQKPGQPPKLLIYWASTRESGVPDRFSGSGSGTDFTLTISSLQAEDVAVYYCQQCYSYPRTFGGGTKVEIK
notes: as for B2
B24: 69E3H11-z12 (antibody, V domains shown)
VH: QVQLVQSGAEVKKPGASVKVSCKASGYTFTTYWMHWVKQAPGQRLEWIGEIDPSDSYANYNQKFKGKATLTVDKSASTAYMELSSLRSEDTAVYYCALYYGYGDWGQGTTVTVSS
VL: EIVLTQSPGTLSLSPGERATLSCSVSSSISSIHLHWYQQKPGQAPRLLIYRTSNLASGIPDRFSGSGSGTDFTLTISRLEPEDFAVYYCQQGSNLPLTFGQGTRLEIK
notes: Humanized, human IgG1 constant region; also called 69E3H11 HU-VH1-3 / HU-VL2-0
B25: 69E3H11-z10 (antibody, V domains shown)
VH: B24 VH
VL: EIVLTQSPDFQSVTPKEKVTITCSVSSSISSIHLHWYQQKPDQSPKLLIKRTSNLASGVPSRFSGSGSGTDFTLTINSLEAEDAATYYCQQGSNLPLTFGQGTRLEIK
notes: Humanized, human IgG1 constant region; also called 69E3H11 HU-VH1-3 / HU-VL1-0

What was measured:
[1] = target: T1, hCDH17-his (full length extracellular domain of human CDH17, Q23-M787, his tag at the C-terminal) (human, UniProt Q12864 23-787); experiment: SPR (Biacore 8K), two doses, antibody captured on Protein A chip, hCDH17-his at 25 nM and 100 nM
T1 construct: Limits of the construct (UniProt Q12864, Q23-M787, C-terminal his tag); also called human CDH17-his protein; human CDH17 protein
T1 sequence: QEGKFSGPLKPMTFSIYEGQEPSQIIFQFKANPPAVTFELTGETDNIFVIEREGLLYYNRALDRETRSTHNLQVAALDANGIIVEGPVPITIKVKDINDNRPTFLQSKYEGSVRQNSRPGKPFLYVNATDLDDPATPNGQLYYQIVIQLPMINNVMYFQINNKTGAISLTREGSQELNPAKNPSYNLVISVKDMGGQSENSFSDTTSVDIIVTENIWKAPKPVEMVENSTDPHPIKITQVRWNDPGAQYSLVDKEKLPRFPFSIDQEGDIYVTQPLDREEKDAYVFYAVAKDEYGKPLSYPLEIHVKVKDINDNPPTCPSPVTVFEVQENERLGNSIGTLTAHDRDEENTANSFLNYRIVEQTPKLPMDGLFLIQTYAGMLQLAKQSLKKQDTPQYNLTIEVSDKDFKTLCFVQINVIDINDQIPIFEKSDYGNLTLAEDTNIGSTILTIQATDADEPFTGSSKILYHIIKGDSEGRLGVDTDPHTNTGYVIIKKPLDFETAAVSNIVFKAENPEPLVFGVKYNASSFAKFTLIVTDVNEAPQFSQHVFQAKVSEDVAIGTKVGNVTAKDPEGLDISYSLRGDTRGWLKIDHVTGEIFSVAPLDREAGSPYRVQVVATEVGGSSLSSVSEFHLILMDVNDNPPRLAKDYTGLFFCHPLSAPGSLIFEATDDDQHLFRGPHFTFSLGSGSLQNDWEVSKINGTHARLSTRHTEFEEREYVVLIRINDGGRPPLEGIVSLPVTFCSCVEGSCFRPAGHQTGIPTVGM

[2] = target: T1, hCDH17-his (full length extracellular …); experiment: SPR (Biacore 8K), antibody captured on Protein A chip, hCDH17-his injected
[3] = target: T2, human CDH17, full length, expressed on cells (HEK293-hCDH17); AsPC-1, HCT-8, AGS, LoVo, KATO III, HT-29 tumor … (human, UniProt Q12864 23-832); experiment: flow cytometry, HEK293-hCDH17 cells
T2 construct: also called human CDH17 expressed on tumor cells
T2 sequence: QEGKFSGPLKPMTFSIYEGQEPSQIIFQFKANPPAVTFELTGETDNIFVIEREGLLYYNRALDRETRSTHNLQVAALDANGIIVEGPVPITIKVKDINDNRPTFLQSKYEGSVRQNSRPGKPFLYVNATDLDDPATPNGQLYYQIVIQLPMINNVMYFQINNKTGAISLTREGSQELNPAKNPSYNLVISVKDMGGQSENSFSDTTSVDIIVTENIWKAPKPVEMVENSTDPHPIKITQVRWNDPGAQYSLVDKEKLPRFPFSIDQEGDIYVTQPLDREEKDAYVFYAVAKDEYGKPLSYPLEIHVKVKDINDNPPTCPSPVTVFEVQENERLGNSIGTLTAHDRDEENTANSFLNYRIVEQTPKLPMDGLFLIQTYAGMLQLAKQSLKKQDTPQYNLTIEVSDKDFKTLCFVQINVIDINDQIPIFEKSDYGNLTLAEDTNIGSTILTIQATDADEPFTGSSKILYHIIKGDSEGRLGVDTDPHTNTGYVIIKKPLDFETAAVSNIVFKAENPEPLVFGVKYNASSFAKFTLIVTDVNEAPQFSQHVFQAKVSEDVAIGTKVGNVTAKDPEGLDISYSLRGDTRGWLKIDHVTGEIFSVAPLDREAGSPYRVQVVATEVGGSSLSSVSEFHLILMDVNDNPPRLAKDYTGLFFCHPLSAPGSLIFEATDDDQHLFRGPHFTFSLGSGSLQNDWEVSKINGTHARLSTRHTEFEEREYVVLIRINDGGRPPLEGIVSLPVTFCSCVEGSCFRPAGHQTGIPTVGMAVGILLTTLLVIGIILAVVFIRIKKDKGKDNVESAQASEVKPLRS

Binder | binding result [1] | binding result [2] | binding result [3]
B1 | binds |  | 
B2 |  | binds | 
B3 | binds |  | 
B4 |  | binds | 
B5 | binds |  | 
B6 |  | binds | 
B7 |  | binds | 
B8 |  | binds | 
B9 |  | binds | 
B10 | binds |  | 
B11 |  | binds | 
B12 | binds |  | 
B13 |  | binds | binds
B14 |  | binds | binds
B15 |  |  | binds
B16 |  |  | binds
B17 |  | binds | binds
B18 |  | binds | binds
B19 |  | binds | binds
B20 |  |  | binds
B21 |  | binds | binds
B22 |  |  | binds
B23 |  | binds | binds
B24 |  | binds | binds
B25 |  |  | binds
